Experimental data from patent publication US20200270588A1, “GLUCOSYL TRANSFERASE POLYPEPTIDES AND METHODS OF USE” (Syngenta Participations AG, priority 2017, published 2020).

Experiment: UDP luminescence plate assay of E. coli extracts, mutants of SEQ ID No: 1, 2 mM metribuzin
Format: biochemical, Zea mays
Conditions: for luminescence signal with metribuzin: H24A null background 1.00E+05 not subtracted; for SIGNAL: metribuzin signal of mutant divided by the signal of w/t bx9: relative to bx9 w/t; for luminescence signal in the DMSO control: mutants of SEQ ID No: 1, DMSO in place of metribuzin (background UDP-glucose hydrolysis); for luminescence signal observed with 2 mM metribuzin: mutants of SEQ ID No: 1 in E. coli extracts, UDP luminescence
Protocol: Optionally plate assays are stopped with brief heating to 95 C before returning to ice and addition of UDP-Glo detection reagent followed by incubation at lab temperature. […] In addition a UDP standard curve is run alongside each set of plate tests.
Assays were carried out on extracts of E. coli BL21 DE3 expressing the various C-terminally his-tagged library variants of SEQ ID NO:1 at the amino acid positions listed in Table 11 as described in Example 2 except, in this case, with 2 mM metribuzin in place of herbicide V.
Thus the ratio of the metribuzin to DMSO signal as well as the increase in signal relative to the w/t bx9 is used to help distinguish those mutations most likely to offer the highest activity to metribuzin. A follow up assay monitored by, for example, LC MS is one method to distinguish these cases more quantitatively.

Molecule | factor of increased signal relative to the bx9 w/t control signal (first parentheses) (2 mM metribuzin) | ratio of activity with metribuzin relative to activity with DMSO (second parentheses) (2 mM metribuzin) | further results
bx9 w/t: wild type Zea mays bx9 glucosyl transferase, C-terminally his-tagged SEQ ID NO: 1 (protein, C-terminal His tag; Zea mays) MASSRTGAGAGGRVVVFPFPFQGHFNPVMRLARALHARGLAITVFHSGALDPADYPADYRFVPVTVEADPKLLASEDIAAIVTTLNASCDAPFRARLSALLAAEGRDSVRCVFTDVSWNAVLTASSDLGVPALGMMTASAASLRDYMAYRTLIDKGYLPVKEERKEDPVPELPPYLVKDLLRVDTSDLEEFAELLARTVTAARRASGLIFNTFPLIETDTLAEIHKALSVPVFAVAPLNKLVPTATASLHGVVQADRGCLQWLDTQQPGSVLYVSFGSMAAMDPHEFVELAWGLADSKRPFVWVVRPNLIRGFESGALPDGVEDEVRGRGIVVAWAPQEEVLAHPAVGGFLTHNGWNSTVEAISEGVPMVCCPRHGDQFGNMRYVCDVWKVGTELVGEQLERGQVKAAIDRLFGTKEGEEIKERMKEFKIAAAKGIGIGVDVDETASPRTDLTDLVDLIKSF |  |  | SIGNAL: metribuzin signal of mutant divided by metribuzin signal of w/t bx9 (2 mM metribuzin): 1.00; UDP-Glo luminescence signal (2 mM metribuzin, 5 ul diluted extract, 40 minutes, DMSO control ~2.3E6, H24A ~1.7E6): ~3.4 E6; luminescence signal with metribuzin (2 mM metribuzin): 1.23E+05; SIGNAL: metribuzin signal of mutant divided by the signal of w/t bx9 (2 mM metribuzin): 1.00; luminescence signal in the DMSO control: 2.76E+05; luminescence signal observed with 2 mM metribuzin (2 mM metribuzin): 2.80E+05
M279F, E339A, H375Y: mutant combination of bx9 SEQ ID NO:1 (protein, Zea mays) MASSRTGAGAGGRVVVFPFPFQGHFNPVMRLARALHARGLAITVFHSGALDPADYPADYRFVPVTVEADPKLLASEDIAAIVTTLNASCDAPFRARLSALLAAEGRDSVRCVFTDVSWNAVLTASSDLGVPALGMMTASAASLRDYMAYRTLIDKGYLPVKEERKEDPVPELPPYLVKDLLRVDTSDLEEFAELLARTVTAARRASGLIFNTFPLIETDTLAEIHKALSVPVFAVAPLNKLVPTATASLHGVVQADRGCLQWLDTQQPGSVLYVSFGSFAAMDPHEFVELAWGLADSKRPFVWVVRPNLIRGFESGALPDGVEDEVRGRGIVVAWAPQAEVLAHPAVGGFLTHNGWNSTVEAISEGVPMVCCPRYGDQFGNMRYVCDVWKVGTELVGEQLERGQVKAAIDRLFGTKEGEEIKERMKEFKIAAAKGIGIGVDVDETASPRTDLTDLVDLIKSF | 7.5 | 7.0 | 
M279F, H375F: mutant combination of bx9 SEQ ID NO:1 (protein, Zea mays) MASSRTGAGAGGRVVVFPFPFQGHFNPVMRLARALHARGLAITVFHSGALDPADYPADYRFVPVTVEADPKLLASEDIAAIVTTLNASCDAPFRARLSALLAAEGRDSVRCVFTDVSWNAVLTASSDLGVPALGMMTASAASLRDYMAYRTLIDKGYLPVKEERKEDPVPELPPYLVKDLLRVDTSDLEEFAELLARTVTAARRASGLIFNTFPLIETDTLAEIHKALSVPVFAVAPLNKLVPTATASLHGVVQADRGCLQWLDTQQPGSVLYVSFGSFAAMDPHEFVELAWGLADSKRPFVWVVRPNLIRGFESGALPDGVEDEVRGRGIVVAWAPQEEVLAHPAVGGFLTHNGWNSTVEAISEGVPMVCCPRFGDQFGNMRYVCDVWKVGTELVGEQLERGQVKAAIDRLFGTKEGEEIKERMKEFKIAAAKGIGIGVDVDETASPRTDLTDLVDLIKSF | 5.0 | 4.0 | 
M279W, H375Y: mutant combination of bx9 SEQ ID NO:1 (protein, Zea mays) MASSRTGAGAGGRVVVFPFPFQGHFNPVMRLARALHARGLAITVFHSGALDPADYPADYRFVPVTVEADPKLLASEDIAAIVTTLNASCDAPFRARLSALLAAEGRDSVRCVFTDVSWNAVLTASSDLGVPALGMMTASAASLRDYMAYRTLIDKGYLPVKEERKEDPVPELPPYLVKDLLRVDTSDLEEFAELLARTVTAARRASGLIFNTFPLIETDTLAEIHKALSVPVFAVAPLNKLVPTATASLHGVVQADRGCLQWLDTQQPGSVLYVSFGSWAAMDPHEFVELAWGLADSKRPFVWVVRPNLIRGFESGALPDGVEDEVRGRGIVVAWAPQEEVLAHPAVGGFLTHNGWNSTVEAISEGVPMVCCPRYGDQFGNMRYVCDVWKVGTELVGEQLERGQVKAAIDRLFGTKEGEEIKERMKEFKIAAAKGIGIGVDVDETASPRTDLTDLVDLIKSF | 4.0 | 5.0 | 
M279F, H375Y: mutant combination of bx9 SEQ ID NO:1 (protein, Zea mays) MASSRTGAGAGGRVVVFPFPFQGHFNPVMRLARALHARGLAITVFHSGALDPADYPADYRFVPVTVEADPKLLASEDIAAIVTTLNASCDAPFRARLSALLAAEGRDSVRCVFTDVSWNAVLTASSDLGVPALGMMTASAASLRDYMAYRTLIDKGYLPVKEERKEDPVPELPPYLVKDLLRVDTSDLEEFAELLARTVTAARRASGLIFNTFPLIETDTLAEIHKALSVPVFAVAPLNKLVPTATASLHGVVQADRGCLQWLDTQQPGSVLYVSFGSFAAMDPHEFVELAWGLADSKRPFVWVVRPNLIRGFESGALPDGVEDEVRGRGIVVAWAPQEEVLAHPAVGGFLTHNGWNSTVEAISEGVPMVCCPRYGDQFGNMRYVCDVWKVGTELVGEQLERGQVKAAIDRLFGTKEGEEIKERMKEFKIAAAKGIGIGVDVDETASPRTDLTDLVDLIKSF | 5.0 | 6.0 | 
S117G: bx9 SEQ ID NO:1 mutant (protein, Zea mays) MASSRTGAGAGGRVVVFPFPFQGHFNPVMRLARALHARGLAITVFHSGALDPADYPADYRFVPVTVEADPKLLASEDIAAIVTTLNASCDAPFRARLSALLAAEGRDSVRCVFTDVGWNAVLTASSDLGVPALGMMTASAASLRDYMAYRTLIDKGYLPVKEERKEDPVPELPPYLVKDLLRVDTSDLEEFAELLARTVTAARRASGLIFNTFPLIETDTLAEIHKALSVPVFAVAPLNKLVPTATASLHGVVQADRGCLQWLDTQQPGSVLYVSFGSMAAMDPHEFVELAWGLADSKRPFVWVVRPNLIRGFESGALPDGVEDEVRGRGIVVAWAPQEEVLAHPAVGGFLTHNGWNSTVEAISEGVPMVCCPRHGDQFGNMRYVCDVWKVGTELVGEQLERGQVKAAIDRLFGTKEGEEIKERMKEFKIAAAKGIGIGVDVDETASPRTDLTDLVDLIKSF |  |  | SIGNAL: metribuzin signal of mutant divided by metribuzin signal of w/t bx9 (2 mM metribuzin): 1.26; luminescence signal with metribuzin (2 mM metribuzin): 1.56E+05; SIGNAL: metribuzin signal of mutant divided by the signal of w/t bx9 (2 mM metribuzin): 1.07; luminescence signal in the DMSO control: 2.41E+05; luminescence signal observed with 2 mM metribuzin (2 mM metribuzin): 3.00E+05
S117G, M279W, E339V: mutant combination of bx9 SEQ ID NO:1 (protein, Zea mays) MASSRTGAGAGGRVVVFPFPFQGHFNPVMRLARALHARGLAITVFHSGALDPADYPADYRFVPVTVEADPKLLASEDIAAIVTTLNASCDAPFRARLSALLAAEGRDSVRCVFTDVGWNAVLTASSDLGVPALGMMTASAASLRDYMAYRTLIDKGYLPVKEERKEDPVPELPPYLVKDLLRVDTSDLEEFAELLARTVTAARRASGLIFNTFPLIETDTLAEIHKALSVPVFAVAPLNKLVPTATASLHGVVQADRGCLQWLDTQQPGSVLYVSFGSWAAMDPHEFVELAWGLADSKRPFVWVVRPNLIRGFESGALPDGVEDEVRGRGIVVAWAPQVEVLAHPAVGGFLTHNGWNSTVEAISEGVPMVCCPRHGDQFGNMRYVCDVWKVGTELVGEQLERGQVKAAIDRLFGTKEGEEIKERMKEFKIAAAKGIGIGVDVDETASPRTDLTDLVDLIKSF | 7.5 | 5.0 | 
A432L: bx9 SEQ ID NO:1 mutant (protein, Zea mays) MASSRTGAGAGGRVVVFPFPFQGHFNPVMRLARALHARGLAITVFHSGALDPADYPADYRFVPVTVEADPKLLASEDIAAIVTTLNASCDAPFRARLSALLAAEGRDSVRCVFTDVSWNAVLTASSDLGVPALGMMTASAASLRDYMAYRTLIDKGYLPVKEERKEDPVPELPPYLVKDLLRVDTSDLEEFAELLARTVTAARRASGLIFNTFPLIETDTLAEIHKALSVPVFAVAPLNKLVPTATASLHGVVQADRGCLQWLDTQQPGSVLYVSFGSMAAMDPHEFVELAWGLADSKRPFVWVVRPNLIRGFESGALPDGVEDEVRGRGIVVAWAPQEEVLAHPAVGGFLTHNGWNSTVEAISEGVPMVCCPRHGDQFGNMRYVCDVWKVGTELVGEQLERGQVKAAIDRLFGTKEGEEIKERMKEFKIALAKGIGIGVDVDETASPRTDLTDLVDLIKSF | 6 | 1.30 | 
S117G, M279W, E339A: mutant combination of bx9 SEQ ID NO:1 (protein, Zea mays) MASSRTGAGAGGRVVVFPFPFQGHFNPVMRLARALHARGLAITVFHSGALDPADYPADYRFVPVTVEADPKLLASEDIAAIVTTLNASCDAPFRARLSALLAAEGRDSVRCVFTDVGWNAVLTASSDLGVPALGMMTASAASLRDYMAYRTLIDKGYLPVKEERKEDPVPELPPYLVKDLLRVDTSDLEEFAELLARTVTAARRASGLIFNTFPLIETDTLAEIHKALSVPVFAVAPLNKLVPTATASLHGVVQADRGCLQWLDTQQPGSVLYVSFGSWAAMDPHEFVELAWGLADSKRPFVWVVRPNLIRGFESGALPDGVEDEVRGRGIVVAWAPQAEVLAHPAVGGFLTHNGWNSTVEAISEGVPMVCCPRHGDQFGNMRYVCDVWKVGTELVGEQLERGQVKAAIDRLFGTKEGEEIKERMKEFKIAAAKGIGIGVDVDETASPRTDLTDLVDLIKSF | 5.0 | 6.5 | 
